Source: the RNAGym collection of RNA variant scans (doi:10.1073/pnas.2313332121)

B1: TPR t1 (parent)
chain: GACCAAUCUGCCCUCAGAGCUCGAGAACAUCUUCGGAUGCAGAGGAGGCAGGCUUCGGUGGCGCGAUAGCGCCAACGUCCUCAACCUCCAAUGCAUCCCACCACAUGAUGAUGCCUGAAGAGCCUUGGUUUUUUG

Variants of: B1
Assay: polymerase ribozyme fitness, log enrichment relative to wild type (log ratio); higher = more active; in vitro selection for triplet polymerase activity
How it was run: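 One round of in vitro selection, in triplicate, was applied to PCR-built, transcribed mutant libraries of each subunit of a heterodimeric triplet polymerase ribozyme. The steps were annealing with a biotinylated primer, partner subunit and triplets, incubation frozen at −7 °C, gel excision of extended constructs, streptavidin-bead capture and RT-PCR. Fitness is the logarithm, base 2, of genotype enrichment over wild-type enrichment from inverse-variance-weighted replicate averages of Illumina-sequenced inputs and outputs, keeping genotypes with ≥10 input reads and ≥1 read per output.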

In order of falling “polymerase ribozyme fitness (log ratio)” value:
1. G19U U96A C114A  0.905
2. U21A U92C U116C A119G  0.265
3. U21G A119G  -0.142
4. U21A C89U  -0.222
5. U21A G61A U96C  -0.247
6. G19U U21A C79G C114A  -0.277
7. C20U C124U  -0.364
8. U21A C62U  -0.421
9. U21G C72A  -0.561
10. C20U G69U G120C  -0.787
11. U21A G60A A74U A100U U125G U132A  -0.987
12. C20G C72A U87C G113A U130G  -1.05
13. U21A G44A  -1.07
14. U21G U54C C56A G57C  -1.15
15. U21A G45U  -1.28
16. C20U U55G  -1.39
17. C20U C72A A119U  -1.58
18. C20U G57A  -1.75
19. C20U A100U  -2
20. C20U G42C  -2.14
21. U21A A43U C73U A90G  -2.19
22. U21A C49G U92C C104U  -2.2
23. C20A U132A  -2.24
24. C20A C49G  -2.27
25. G19U C20U U106C  -2.36
26. C20U G57A G58C  -2.72
27. G19U C72U A84C  -2.82
28. G19U C64U  -2.87
29. G19U G47C C97U C114G  -2.97
30. G19U C40U  -3
31. G19U C56A  -3.03
32. C20G C53U  -3.06
33. C20U G44U G93A  -3.1
34. C20U G48C U54G A74C  -3.11
35. C22G C72U  -3.13
36. C22G C73A  -3.17
37. C20A G117U  -3.2
38. C20A G117A  -3.21
39. C20A U125A  -3.22
40. C20A G93A  -3.32
41. C20U G69A  -3.34
42. C20A A37U A83C  -3.38
43. U21A C28G G57A U59G C124U U130A  -3.45
44. C20A C89U U130A  -3.54
45. U21C G60U G110A  -3.6
46. C20G G135C  -3.68
47. G19U C86G  -3.71
48. U21G C64U C72U C73G  -3.77
49. C20U A105U  -3.87
50. C22A G69U  -3.88
51. C22A G45A C53G C88G A111U  -3.89
52. C20G G39A G57A U109A  -3.93
53. C22G C82G U96A  -3.98
54. C22G A26C G39U A50G C72U U112C  -4.01
55. C20U C40G G63C  -4.09
56. C20G G44A G120C  -4.1
57. G19U G39U G48A A111G  -4.12
58. C20G C62U C98U A111U G120C  -4.17
59. C20U A41C U116C  -4.23
60. C20A C28A G36A A90C G110U  -4.25
61. C20G C53A  -4.27
62. G19U U55C  -4.3
63. C20U G42A A91C  -4.6
64. C20G C53G  -4.62
65. U21A C56G U78A C85A U109G  -4.63
66. C20A A37G C49A G63A  -4.85
67. U21A C31U U78G C101G U106A G113C  -4.88
68. C22A C53U G113U  -4.93
69. U21G C62G C101U  -5
70. C20U C53A G71A A91G  -5.09
71. C20A C34A A41C G69U C73U  -5.14
72. C20U G60A G107C G120C  -5.52
73. C20U C28G G45A G52U G69U C114U  -5.61
74. U21A A37C A46U G77A C89U U131C  -5.66
75. C20U C72U C98A  -5.82
76. C20U G42C C88G U112A G117A  -6
77. U21A A27C A68G C94A  -6.24
78. C22G A46C C62G A74U  -6.42
79. C20G G61U C79A G117C C123A  -6.44
80. C22A C40A G69A C86U C97G C99G U125A  -6.51
81. U21A U33G G42C A43U G63U G117A  -6.65
82. G19U U87G G110C U112G  -6.7
83. C20A C28U G39U G71U C97U C123A  -6.92
84. U21C G45C C56U G69A U109A A111U C124G  -8.04
